Measurements published in publication PMC8031885, “Targeted mutagenesis on PDGFRα-Fc identifies amino acid modifications that allow efficient inhibition of HCMV infection while abolishing PDGF sequestration” (PLoS Pathogens, 2021).

Tests used:
Details in all cases: both partners purified
[1] = biological target: T1, PDGFRα-Fc V242K (UniProt P16234-1 24-528, V242K); experiment: MST; Monolith NT.115 Pico; read-out: dose-dependent changes of MST traces (F1 over F0; MST-on time 4-5 s in Fig 7, 1.5-2.5 s in Fig 10A); 0.1 nmol/l NT-647-labelled PDGF-BB constant, PDGFRα-Fc titrated; 60% excitation power; 0.025% Tween-20, 50 mM NaCl; 25°C
T1 construct: PDGFRα (CD140a), extracellular domain, aa 24 to 528, NCBI XP_005265800; Point mutant of m1; also called V242K single mutant; source: HEK 293 F suspension cells, transiently transfected (PEI), purified from the medium with Protein A beads

[2] = biological target: T2, PDGFRα-Fc I139E + Y206S (UniProt P16234-1 24-528, I139E | Y206S); experiment: as above
T2 construct: PDGFRα (CD140a), extracellular domain, aa 24 to 528, NCBI XP_005265800; Double mutant of m1; also called I139E + Y206S double mutant; PDGFRα-Fc double mutant; source: HEK 293 F suspension cells, transiently transfected (PEI), purified from the medium with Protein A beads

[3] = biological target: T3, PDGFRα-Fc I139A + Y206A (UniProt P16234-1 24-528, I139A | Y206A); experiment: MST; Monolith NT.115 Pico; read-out: dose-dependent photo-bleaching (fluorescence quenching) rate in a prolonged initial fluorescence segment (5 s) before the thermophoresis segment; 0.1 nmol/l NT-647-labelled PDGF-BB constant, PDGFRα-Fc variants in 16 concentrations over 5 log steps; 60% excitation power; one site binding model; IgG elution buffer neutralised with 0.1 M Tris pH 8.0, 0.025% Tween-20, 50 mM NaCl; 25°C
T3 construct: PDGFRα (CD140a), extracellular domain, aa 24 to 528, NCBI XP_005265800; Double mutant of m1; also called double alanine-exchange mutant; source: HEK 293 F suspension cells, transiently transfected (PEI), purified from the medium with Protein A beads

[4] = biological target: T4, PDGFRα-Fc wild type (UniProt P16234-1 24-528); experiment: as above
T4 construct: PDGFRα (CD140a), extracellular domain, aa 24 to 528, NCBI XP_005265800; Vector pFuse-PDGFRα-ECD-hIgG1-Fc2; also called soluble PDGFRα-Fc; WT; source: HEK 293 F suspension cells, transiently transfected (PEI), purified from the medium with Protein A beads

[5] = biological target: T5, PDGFRα-Fc I139E (UniProt P16234-1 24-528, I139E); experiment: as above
T5 construct: PDGFRα (CD140a), extracellular domain, aa 24 to 528, NCBI XP_005265800; Point mutant of m1; source: HEK 293 F suspension cells, transiently transfected (PEI), purified from the medium with Protein A beads

[6] = biological target: T6, PDGFRα-Fc Y206S (UniProt P16234-1 24-528, Y206S); experiment: as above
T6 construct: PDGFRα (CD140a), extracellular domain, aa 24 to 528, NCBI XP_005265800; Point mutant of m1; source: HEK 293 F suspension cells, transiently transfected (PEI), purified from the medium with Protein A beads

B1: PDGF-BB (ligand, UniProt P01127 82-190, looked up)
chain: SLGSLTIAEPAMIAECKTRTEVFEISRRLIDRTNANFLVWPPCVEVQRCSGCCNNRNVQCRPTQVQLRPVQVRKIEIVRKKPIFKKATVTLEDHLACKCETVAAARPVT
modifications: NT-647 dye on amines (amine reactive labelling kit RED-NHS) in the MST experiments; unlabelled in the signalling assays
notes: PDGF-B chain of dimeric PDGF-BB, bought recombinant protein; also called dimeric PDGF-BB; source: bought: R&D # 220-BB
[1]
  Kd: 92 nM
[2]
  Kd: 200 nM
[3]
  Kd: 4.6 nM
[4]
  Kd: 0.14 nM
[5]
  Kd: 4.02 nM
[6]
  Kd: 7.32 nM
